{"source": "patent US20200046641A1", "about": "“LIPOSOMES FOR THE TREATMENT OF OCULAR DISEASES” (TDC Technology Dedicated to Care srl, priority 2018, published 2020)", "molecules": {"B1": {"name": "lactoferrin (protein, UniProt P02788 20-710, looked up)", "Lactotransferrin": "GRRRSVQWCAVSQPEATKCFQWQRNMRKVRGPPVSCIKRDSPIQCIQAIAENRADAVTLDGGFIYEAGLAPYKLRPVAAEVYGTERQPRTHYYAVAVVKKGGSFQLNELQGLKSCHTGLRRTAGWNVPIGTLRPFLNWTGPPEPIEAAVARFFSASCVPGADKGQFPNLCRLCAGTGENKCAFSSQEPYFSYSGAFKCLRDGAGDVAFIRESTVFEDLSDEAERDEYELLCPDNTRKPVDKFKDCHLARVPSHAVVARSVNGKEDAIWNLLRQAQEKFGKDKSPKFQLFGSPSGQKDLLFKDSAIGFSRVPPRIDSGLYLGSGYFTAIQNLRKSEEEVAARRARVVWCAVGEQELRKCNQWSGLSEGSVTCSSASTTEDCIALVLKGEADAMSLDGGYVYTAGKCGLVPVLAENYKSQQSSDPDPNCVDRPVEGYLAVAVVRRSDTSLTWNSVKGKKSCHTAVDRTAGWNIPMGLLFNQTGSCKFDEYFSQSCAPGSDPRSNLCALCIGDEQGENKCVPNSNERYYGYTGAFRCLAENAGDVAFVKDVTVLQNTDGNNNEAWAKDLKLADFALLCLDGKRKPVTEARSCHLAMAPNHAVVSRMDKVERLKQVLLHQQAKFGRNGSDCPDKFCLFQSETKNLLFNDNTECLARLHGKTTYEKYLGPQYVAGITNLKKCSTSPLLEACEFLRK"}}, "test_system": "inflamed eye of male albino rabbits", "assay": "In vivo treatment of ocular inflammation induced by arachidonic acid sodium salt", "set-up": "species or system rabbit", "conditions": "50 μl given 30 minutes after 0.5% arachidonic acid sodium salt; scored 30-210 minutes", "protocol": "Inflammation in the eye of male albino rabbits as described in Example 7 is induced by applying a drop of eye drops containing 0.5% arachidonic acid sodium salt (SA-irritating agent) at time 0. After 30 minutes, the sample under examination is administered to the inflamed eye. Finally, the ocular inflammation index is evaluated at different time points. In the present test, the samples under examination were: • I) 50 μl of free lactoferrin (not encapsulated into the lipid bilayer of liposomes) dissolved in PBS (comparative example); • II) 50 μl of F2 liposomes.\nAs positive control (C+-comparative), a rabbit administered with SA at time 0, without any administration after 30 minutes, has been used.\nThe ocular inflammation has been evaluated for each time point at 30, 60, 90, 120, 150, 180 and 210 minutes and the inflammation index has been consequently calculated for each time point according to the tables of the previous Example."}
{"molecule": "B1", "values": [{"measurement": "Treatment of ocular inflammation (ocular inflammation score, FIG. 1)", "value": "not obtained"}]}
